Drawing on patent EP0877803B1, this text covers BIACORE read-out for two substances.

The target in test [1] is OB protein. As to the kind of experiment: BIACORE; OB protein immobilized, conditioned medium of 293 cells expressing the receptor. In general terms: SPR reads the build-up and loss of mass on a sensor chip optically.
The target of test [2] is OB protein. As to the kind of experiment: BIACORE; OB protein immobilized, conditioned medium of CHO cells expressing the receptor.

On to “recombinant soluble human OB receptor (leader + extracellular domain, Seq. ID No. 10)”, for which the figures for the BIACORE read-out with OB protein [1] and with OB protein [2] were 191 and 151, respectively.
In the case of “recombinant soluble human OB receptor with a C-terminal FLAG-tag (Seq. ID No. 12)”, the BIACORE read-out in the test with OB protein [1] was found to be 172.
